{
  "source": "patent US10766952B2",
  "about": "“Methods for reducing migraine frequency in a subject in need thereof” (Beth Israel Deaconess Medical Center, Inc., priority 2017, dated 2020)",
  "molecules": {"B1": {"name": "M46: G1 variant: L1 R28N; L2 G50A,L56T; H2 E54K,A57N,S58E,H61F; HC-FW3 L99T,A100V (antibody, V domains shown)", "VH": "EVQLVESGGGLVQPGGSLRLSCAASGFTFSNYWISWVRQAPGKGLEWVAEIRSKSDNEATFYAEAVKGRFTISRDNAKNSLYLQMNSLRAEDTAVYYCTVYFDYGLAIQNYWGQGTLVTVSS", "VL": "EIVLTQSPATLSLSPGERATLSCKASKNVTTYVSWYQQKPGQAPRLLIYAASNRYTGIPARFSGSGSGTDFTLTISSLEPEDFAVYYCSQSYNYPYTFGQGTKLEIK"}, "B2": {"name": "M65: G1 variant: L1 R28N,T30G; L2 G50A,L56I; H2 E54K,A57C; HC-FW3 L99T,A100V (antibody, V domains shown)", "VH": "B1 VH with N57C, E58S, F61H", "VL": "B1 VL with T30G, T56I"}, "B3": {"name": "M59: G1 variant: L1 R28N,T30D; L2 L56S; H2 E54K,A57N,S58N,H61F; HC-FW3 L99T,A100V (antibody, V domains shown)", "VH": "B1 VH with E58N", "VL": "B1 VL with T30D, A50G, T56S"}, "B4": {"name": "M55: G1 variant: L1 R28N,T30A; L2 L56S; H2 E54K,A57N,S58E,E64D; HC-FW3 L99T,A100V (antibody, V domains shown)", "VH": "B1 VH with F61H, E64D", "VL": "B1 VL with T30A, A50G, T56S"}, "B5": {"name": "M48: G1 variant: L1 R28N; L2 G50A,L56T; H2 E54K,A57N,S58L; HC-FW3 L99T,A100V (antibody, V domains shown)", "VH": "B1 VH with E58L, F61H", "VL": "B1 VL"}, "B6": {"name": "M49: G1 variant: L1 R28N; L2 G50A,L56T; H2 E54K,A57N,S58Y,H61F; HC-FW3 L99T,A100V (antibody, V domains shown)", "VH": "B1 VH with E58Y", "VL": "B1 VL"}, "B7": {"name": "M64: G1 variant: L1 R28N,T30G; L2 G50A; H2 E54K,A57N,S58V; HC-FW3 L99T,A100V (antibody, V domains shown)", "VH": "B1 VH with E58V, F61H", "VL": "B1 VL with T30G, T56L"}, "B8": {"name": "M61: G1 variant: L1 R28N,T30G; L2 A51H; H2 E54Q,A57N,H61F; HC-FW3 L99T,A100V (antibody, V domains shown)", "VH": "B1 VH with K54Q, E58S", "VL": "B1 VL with T30G, A50G, A51H, T56L"}, "B9": {"name": "M57: G1 variant: L1 R28N,T30D; L2 L56S; H2 E54K,A57N,S58E; HC-FW3 L99T,A100V (antibody, V domains shown)", "VH": "B1 VH with F61H", "VL": "B1 VL with T30D, A50G, T56S"}, "B10": {"name": "M51: G1 variant: L1 R28N; L2 L56I; H2 E54K,A57G; HC-FW3 L99T,A100V (antibody, V domains shown)", "VH": "B1 VH with N57G, E58S, F61H", "VL": "B1 VL with A50G, T56I"}, "B11": {"name": "M52: G1 variant: L1 R28N; L2 L56I; H2 E54K,A57N,S58A; HC-FW3 L99T,A100V (antibody, V domains shown)", "VH": "B1 VH with E58A, F61H", "VL": "B1 VL with A50G, T56I"}, "B12": {"name": "M62: G1 variant: L1 R28N,T30G; L2 A51H,L56T; H2 E54K,A57N,S58E; HC-FW3 L99T,A100V (antibody, V domains shown)", "VH": "B1 VH with F61H", "VL": "B1 VL with T30G, A50G, A51H"}, "B13": {"name": "M66: G1 variant: L1 R28N,T30G; L2 L56I; H2 E54K,A57E; HC-FW3 L99T,A100V (antibody, V domains shown)", "VH": "B1 VH with N57E, E58S, F61H", "VL": "B1 VL with T30G, A50G, T56I"}, "B14": {"name": "M60: G1 variant: L1 R28N,T30D; L2 L56S; H2 E54K,A57N,S58R,H61F; HC-FW3 L99T,A100V (antibody, V domains shown)", "VH": "B1 VH with E58R", "VL": "B1 VL with T30D, A50G, T56S"}, "B15": {"name": "M58: G1 variant: L1 R28N,T30D; L2 L56S; H2 E54K,A57N,S58I,H61F; HC-FW3 L99T,A100V (antibody, V domains shown)", "VH": "B1 VH with E58I", "VL": "B1 VL with T30D, A50G, T56S"}, "B16": {"name": "M56: G1 variant: L1 R28N,T30D; L2 L56S; H2 E54K,A57N,H61F; HC-FW3 L99T,A100V (antibody, V domains shown)", "VH": "B1 VH with E58S", "VL": "B1 VL with T30D, A50G, T56S"}, "B17": {"name": "M50: G1 variant: L1 R28N; L2 G50A,L56T; H2 E54K,A57R; HC-FW3 L99T,A100V (antibody, V domains shown)", "VH": "B1 VH with N57R, E58S, F61H", "VL": "B1 VL"}, "B18": {"name": "M53: G1 variant: L1 R28N; L2 L56I; H2 E54K,A57N,S58G; HC-FW3 L99T,A100V (antibody, V domains shown)", "VH": "B1 VH with E58G, F61H", "VL": "B1 VL with A50G, T56I"}, "B19": {"name": "M54: G1 variant: L1 R28N,T30A; L2 G50A; H2 E54K,A57N,S58P; HC-FW3 L99T,A100V (antibody, V domains shown)", "VH": "B1 VH with E58P, F61H", "VL": "B1 VL with T30A, T56L"}, "B20": {"name": "M67: G1 variant: L1 R28N,T30G; L2 L56I; H2 E54K,A57F; HC-FW3 L99T,A100V (antibody, V domains shown)", "VH": "B1 VH with N57F, E58S, F61H", "VL": "B1 VL with T30G, A50G, T56I"}, "B21": {"name": "M47: G1 variant: L1 R28N; L2 G50A,L56T; H2 E54K,A57N,S58G; HC-FW3 L99T,A100V (antibody, V domains shown)", "VH": "B1 VH with E58G, F61H", "VL": "B1 VL"}, "B22": {"name": "M63: G1 variant: L1 R28N,T30G; L2 G50A; H2 E54K,A57N,S58T; HC-FW3 L99T,A100V (antibody, V domains shown)", "VH": "B1 VH with E58T, F61H", "VL": "B1 VL with T30G, T56L"}},
  "note": "Positions count from the first letter of the chain named. Names may count otherwise.",
  "data": [
    {"biological_target": "T1, human α-CGRP (Homo sapiens, UniProt P06881)", "T1 construct": "1-37 (WT); purchased; host or cells: synthetic peptide", "T1 sequence (P06881 83-119 limits assumed)": "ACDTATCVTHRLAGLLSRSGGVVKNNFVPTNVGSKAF", "test": "Biacore affinity of antibody G1 Fab and variants to human α-CGRP", "format": "binding", "conditions": "37° C., Fab, screening mode unless underlined", "method": "(§1) Biacore assay for affinity determination. […] All Biacore assays were conducted in HBS-EP running buffer (10 mM HEPES pH 7.4, 150 mM NaCl, 3 mM EDTA, 0.005% v/v polysorbate P20). CGRP surfaces were prepared by diluting the N-biotinylated CGRP to a concentration of less than 0.001 mg/mL into HBS-EP buffer and injecting it across the SA sensor chip using variable contact times. Low capacity surfaces, corresponding to capture levels <50 response units (RU) were used for high-resolution kinetic studies, whereas high capacity surfaces (about 800 RU of captured CGRP) were used for concentration studies, screening, and solution affinity determinations. […] Samples were typically injected for lminute at 100 μL/min and dissociation times of at least 10 minutes were allowed. After each binding cycle, surfaces were regenerated with 25 mM NaOH in 25% v/v ethanol, which was tolerated over hundreds of cycles. An entire titration series (typically generated in duplicate) was fit globally to a 1:1 Langmuir binding model using the BlAevaluation program. This returned a unique pair of association and dissociation kinetic rate constants (respectively, kon and koff) for each binding interaction, whose ratio gave the equilibrium dissociation constant (KD=koff/[…]).\n(§2) High-resolution analysis of binding interactions with extremely slow offrates. […] The protocol described above was used with the following modifications. The association rate constant (kon) was determined by injecting a 2-fold titration series (in duplicate) spanning 550 nM-1 nM for 30 seconds at 100 μL/min and allowing only a 30 second dissociation phase. The dissociation rate constant (koff) was determined by injecting three concentrations (high, medium, and low) of the same titration series in duplicate for 30 seconds and allowing a 2-hour dissociation phase. The affinity (KD) of each interaction was obtained by combining the kon and koff values obtained in both types of experiments, as shown in Table 4.\n(§3) The binding affinities of Fab fragments were determined by Biacore by flowing them across CGRPs on a SA chip.", "units": {"α-human koff": "s⁻¹"}, "values": [
      {"molecule": "B1", "α-human koff": 0.000539},
      {"molecule": "B2", "α-human koff": 0.000803},
      {"molecule": "B3", "α-human koff": 0.000524},
      {"molecule": "B4", "α-human koff": 0.000478},
      {"molecule": "B5", "α-human koff": 0.000842},
      {"molecule": "B6", "α-human koff": 0.000595},
      {"molecule": "B7", "α-human koff": 0.00132},
      {"molecule": "B8", "α-human koff": 0.000459},
      {"molecule": "B9", "α-human koff": 0.000322},
      {"molecule": "B10", "α-human koff": 0.000131},
      {"molecule": "B11", "α-human koff": 0.000281},
      {"molecule": "B12", "α-human koff": 0.000557},
      {"molecule": "B13", "α-human koff": 0.00052},
      {"molecule": "B14", "α-human koff": 0.000911},
      {"molecule": "B15", "α-human koff": 0.00195},
      {"molecule": "B16", "α-human koff": 0.000479},
      {"molecule": "B17", "α-human koff": 0.000406},
      {"molecule": "B18", "α-human koff": 0.000374},
      {"molecule": "B19", "α-human koff": 0.00179},
      {"molecule": "B20", "α-human koff": 0.00082},
      {"molecule": "B21", "α-human koff": 0.000332},
      {"molecule": "B22", "α-human koff": 0.0015}
    ]},
    {"biological_target": "T2, rat α-CGRP (Rattus norvegicus, UniProt P01256)", "T2 construct": "rat α (1-37); host or cells: synthetic peptide", "T2 sequence (P01256 83-119 limits assumed)": "T1 sequence (P06881 83-119 limits assumed) with A1S, D3N, N25D, K35E", "test": "Biacore affinity of antibody G1 Fab and variants to rat α-CGRP", "format": "binding", "conditions": "37° C., Fab, screening mode unless underlined", "method": "as §1, §2, §3", "values": [
      {"molecule": "B1", "α-rat koff": "0.00294 s⁻¹"},
      {"molecule": "B2", "α-rat koff": "0.00407 s⁻¹"},
      {"molecule": "B3", "α-rat koff": "0.0123 s⁻¹"},
      {"molecule": "B4", "α-rat koff": "0.00585 s⁻¹"},
      {"molecule": "B5", "α-rat koff": "0.0343 s⁻¹"},
      {"molecule": "B6", "α-rat koff": "0.0148 s⁻¹"},
      {"molecule": "B7", "α-rat koff": "0.0234 s⁻¹"},
      {"molecule": "B8", "α-rat koff": "0.00521 s⁻¹"},
      {"molecule": "B9", "α-rat koff": "0.0104 s⁻¹"},
      {"molecule": "B10", "α-rat koff": "0.00118 s⁻¹"},
      {"molecule": "B11", "α-rat koff": "0.00229 s⁻¹"},
      {"molecule": "B12", "α-rat koff": "0.00575 s⁻¹"},
      {"molecule": "B13", "α-rat koff": "0.00511 s⁻¹"},
      {"molecule": "B14", "α-rat koff": "0.0272 s⁻¹"},
      {"molecule": "B15", "α-rat koff": "No binding"},
      {"molecule": "B16", "α-rat koff": "0.00935 s⁻¹"},
      {"molecule": "B17", "α-rat koff": "0.0053 s⁻¹"},
      {"molecule": "B18", "α-rat koff": "0.00191 s⁻¹"},
      {"molecule": "B19", "α-rat koff": "0.00216 s⁻¹"},
      {"molecule": "B20", "α-rat koff": "0.00171 s⁻¹"},
      {"molecule": "B21", "α-rat koff": "0.00823 s⁻¹"},
      {"molecule": "B22", "α-rat koff": "0.00265 s⁻¹"}
    ]}
  ]
}
